Biological target: T1, GST-SLR1 (rice (Oryza sativa), UniProt Q7G7J6 1-625)
T1 construct: SLENDER RICE 1 (SLR1), the rice DELLA protein; 'the cDNAs encoding SLR1'; source: E. coli Rosetta (DE3), purified (GSTrap FF column)
T1 sequence: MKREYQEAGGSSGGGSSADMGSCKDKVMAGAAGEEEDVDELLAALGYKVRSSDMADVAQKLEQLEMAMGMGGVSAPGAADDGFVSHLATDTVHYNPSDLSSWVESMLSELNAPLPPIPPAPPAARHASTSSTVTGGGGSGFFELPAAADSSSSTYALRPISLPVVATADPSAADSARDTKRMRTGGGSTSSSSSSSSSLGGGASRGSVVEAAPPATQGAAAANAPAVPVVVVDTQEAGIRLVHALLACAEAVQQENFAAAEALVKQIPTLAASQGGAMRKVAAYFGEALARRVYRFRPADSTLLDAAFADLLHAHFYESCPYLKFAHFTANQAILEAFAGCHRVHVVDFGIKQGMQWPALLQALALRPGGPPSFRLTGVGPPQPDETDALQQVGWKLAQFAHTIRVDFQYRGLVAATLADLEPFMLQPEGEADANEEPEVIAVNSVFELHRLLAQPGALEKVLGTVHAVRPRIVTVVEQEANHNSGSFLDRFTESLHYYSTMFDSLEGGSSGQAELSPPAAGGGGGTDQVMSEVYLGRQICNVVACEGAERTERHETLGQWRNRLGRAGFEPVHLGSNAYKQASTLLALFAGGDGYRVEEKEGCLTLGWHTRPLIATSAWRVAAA
Test: pull-down; competitive pull-down: GST-SLR1 and MBP-His-OsGID1 with 100 µM GA3, then 10 or 50 µg TF-His-SP8 (or MBP-His-P2), 4 °C about 2 h; GST beads; anti-GST and anti-His blots
Conditions: both partners purified

B1: MBP-His-OsGID1 (receptor)
chain: MAGSDEVNRNECKTVVPLHTWVLISNFKLSYNILRRADGTFERDLGEYLDRRVPANARPLEGVSSFDHIIDQSVGLEVRIYRAAAEGDAEEGAAAVTRPILEFLTDAPAAEPFPVIIFFHGGSFVHSSASSTIYDSLCRRFVKLSKGVVVSVNYRRAPEHRYPCAYDDGWTALKWVMSQPFMRSGGDAQARVFLSGDSSGGNIAHHVAVRAADEGVKVCGNILLNAMFGGTERTESERRLDGKYFVTLQDRDWYWKAYLPEDADRDHPACNPFGPNGRRLGGLPFAKSLIIVSGLDLTCDRQLAYADALREDGHHVKVVQCENATVGFYLLPNTVHYHEVMEEISDFLNANLYY
notes: OsGID1, the rice gibberellin receptor GIBBERELLIN … DWARF1; also called PET32a-MBP-His-OsGID1; source: E. coli Rosetta (DE3), purified (Ni-NTA His-trap column)
  binding result: binds

— paper PMC9663503, “Independently evolved viral effectors convergently suppress DELLA protein SLR1-mediated broad-spectrum antiviral immunity in rice” (Nature Communications, 2022)
